T1: MtrA (Mycobacterium tuberculosis H37Rv) (UniProt P9WGM7)
T1 sequence: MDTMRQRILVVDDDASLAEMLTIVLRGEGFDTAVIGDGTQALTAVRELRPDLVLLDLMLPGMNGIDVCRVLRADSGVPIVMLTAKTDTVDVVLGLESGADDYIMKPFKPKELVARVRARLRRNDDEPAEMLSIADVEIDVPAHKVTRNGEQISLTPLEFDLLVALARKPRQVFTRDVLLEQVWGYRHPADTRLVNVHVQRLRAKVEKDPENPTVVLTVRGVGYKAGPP

T2: MtrA (Mycobacterium tuberculosis H37Rv, UniProt P9WGM7 1-228)
T2 sequence: T1 sequence

B1: Rv3859c fragment (dsDNA)
DNA 1: GTTACGTGATCGAATTGTGGTCCAGG
DNA 2: CCTGGACCACAATTCGATCACGTAAC
B2: Rv0309 fragment (dsDNA)
DNA 1: GCTTTGTCACCGCACAGTGACCCAGC
DNA 2: GCTGGGTCACTGTGCGGTGACAAAGC
B3: No-Binding fragment (dsDNA)
DNA 1: ACAGCGGGACGTTTTCGCGCTGCATC
DNA 2: GATGCAGCGCGAAAACGTCCCGCTGT
B4: Rv2524c fragment (dsDNA)
DNA 1: GTTTTGTTATCAAATCGTTATGCTGG
DNA 2: CCAGCATAACGATTTGATAACAAAAC
B5: artificial highest-contribution sequence (dsDNA)
DNA 1: GTTTTGTTATCGTTTTGTGATATGGA
DNA 2: TCCATATCACAAAACGATAACAAAAC

Several values for one entry are separate records, joined by “and”; a condition that tells them apart may be missing. Equal values may be shown once.

The target of one data set is T1, MtrA (Mycobacterium tuberculosis H37Rv). Put plainly: BLI.
Conditions: not given
Rv0320 fragment had a Kd of 0.142 µM.
On the same count and under the same terms, the figure for Rv0469 fragment is 119 µM.
Rv1918c fragment returned a Kd of 0.079 µM.
Still for that read-out and setting: the figure for Rv3246c fragment is 9880 µM.
As for Rv3849 fragment, the equilibrium dissociation constant (Kd) was determined as 9650 µM.

The next data set concerns the target T2, MtrA. Put plainly: BLI. Particulars: protein: recombinant; tags: His6 (pET28a, BamHI/XhoI; N-terminal, inferred from stop codon in reverse primer); chain copies: 2; blunt.
Regarding B1, the Kd is 13.3 µM and 11.1 µM.
Still for that read-out and setting: under B2 stands 178 µM.
As to B3, the binding result is recorded as “no binding”.
As to B4, the Kd was 0.0462 µM and 0.0625 µM.
Same read-out and setting: under B5 stands 0.248 µM.

The Kd is the constant that tells how readily two partners part at equilibrium.

The record behind these values is article PMC10609481, “Substrate DNA Promoting Binding of Mycobacterium tuberculosis MtrA by Facilitating Dimerization and Interpretation of Affinity by Minor Groove Width”.
